Among the data in paper PMC11808424 are Kd values, retold here.

The term Kd denotes the constant that tells how readily two partners part at equilibrium. A lower Kd goes with a tighter complex.

This assay deals with soluble His‐tagged human LRP4 (low‐density lipoprotein receptor‐related protein 4) (human) (UniProt O75096). In words: SPR. On the technique in general: Surface plasmon resonance follows binding to a sensor surface in real time, without labels.
Chain of UniProt O75096 (O75096 21-1725): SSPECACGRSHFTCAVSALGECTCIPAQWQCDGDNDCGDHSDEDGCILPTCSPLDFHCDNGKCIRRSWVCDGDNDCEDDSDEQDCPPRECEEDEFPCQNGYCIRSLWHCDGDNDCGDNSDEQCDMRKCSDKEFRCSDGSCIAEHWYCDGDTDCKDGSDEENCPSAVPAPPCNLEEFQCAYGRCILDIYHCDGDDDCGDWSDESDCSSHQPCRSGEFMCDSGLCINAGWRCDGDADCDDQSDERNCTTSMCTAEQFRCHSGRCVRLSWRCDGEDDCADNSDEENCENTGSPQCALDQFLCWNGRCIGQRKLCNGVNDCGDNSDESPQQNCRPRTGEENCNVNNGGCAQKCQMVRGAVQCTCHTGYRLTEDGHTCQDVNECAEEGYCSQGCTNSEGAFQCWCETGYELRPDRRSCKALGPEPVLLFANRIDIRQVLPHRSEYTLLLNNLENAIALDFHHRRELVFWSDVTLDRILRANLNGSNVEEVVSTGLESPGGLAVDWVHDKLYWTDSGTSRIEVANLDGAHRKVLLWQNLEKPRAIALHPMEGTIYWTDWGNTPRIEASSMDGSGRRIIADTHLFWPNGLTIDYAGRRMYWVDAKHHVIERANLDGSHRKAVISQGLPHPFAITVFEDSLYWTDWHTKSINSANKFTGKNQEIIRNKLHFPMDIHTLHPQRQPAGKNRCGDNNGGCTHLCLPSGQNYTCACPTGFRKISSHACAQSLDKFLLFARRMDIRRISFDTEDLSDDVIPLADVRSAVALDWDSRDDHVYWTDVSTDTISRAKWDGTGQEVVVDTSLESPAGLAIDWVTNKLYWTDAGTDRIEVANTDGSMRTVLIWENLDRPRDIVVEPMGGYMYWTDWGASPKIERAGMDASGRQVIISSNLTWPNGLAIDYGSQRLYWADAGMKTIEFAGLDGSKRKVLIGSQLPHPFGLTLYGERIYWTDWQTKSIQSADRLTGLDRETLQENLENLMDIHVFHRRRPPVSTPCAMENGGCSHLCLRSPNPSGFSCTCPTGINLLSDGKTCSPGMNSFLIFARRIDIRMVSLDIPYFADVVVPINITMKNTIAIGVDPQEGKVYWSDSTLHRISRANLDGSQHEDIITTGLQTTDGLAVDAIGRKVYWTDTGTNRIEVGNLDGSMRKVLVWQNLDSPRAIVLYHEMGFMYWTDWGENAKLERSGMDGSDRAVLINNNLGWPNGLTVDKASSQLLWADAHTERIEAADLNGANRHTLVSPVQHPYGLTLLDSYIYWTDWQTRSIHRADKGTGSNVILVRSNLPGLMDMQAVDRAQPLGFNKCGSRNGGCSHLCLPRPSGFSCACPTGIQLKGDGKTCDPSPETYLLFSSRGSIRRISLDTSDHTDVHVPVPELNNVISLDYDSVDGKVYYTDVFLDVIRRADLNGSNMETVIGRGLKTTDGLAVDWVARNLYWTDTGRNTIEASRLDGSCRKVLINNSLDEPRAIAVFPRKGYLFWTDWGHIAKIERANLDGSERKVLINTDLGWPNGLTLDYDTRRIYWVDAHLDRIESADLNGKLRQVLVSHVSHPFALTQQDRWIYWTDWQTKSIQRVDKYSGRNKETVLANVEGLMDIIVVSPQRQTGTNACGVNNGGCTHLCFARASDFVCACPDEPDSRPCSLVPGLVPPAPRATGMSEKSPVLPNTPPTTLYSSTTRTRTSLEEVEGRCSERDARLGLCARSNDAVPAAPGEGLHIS
Substance “purified soluble Scl_(V136D) (natural protein)” had a Kd of 7.52 µM. The same measure for “purified soluble Scl_(K75E) (natural protein)”: 35.9 µM. Then “purified soluble Scl_(K75Q) (natural protein)”, with 20.2 µM.
